Measurements as given in patent US6124125A, “AMP activated protein kinase” (Trustees of Dartmouth College, priority 1996, dated 2000).
“And” between values parts separate entries of the source, which are not always exact repeats. Equal entries are not always repeated. Where no end group is shown, it is not given here.

How the values were obtained:
AMPK α2 = format: biochemical, rat; conditions: alpha2 immune precipitates
AMPK α1 = format: biochemical, rat; conditions: alpha1 immune precipitates, 200 µM
AMPK = AMPK protein kinase assay: phosphorylation of synthetic peptide substrates by partially purified enzyme (DE-52 step); format: biochemical, porcine; conditions: for rate of phosphorylation relative to the SAMS peptide: partially purified enzyme (purified to the DE-52 step), % of the rate of the SAMS peptide; for Km: peptide as substrate of AMPK, read-out: apparent Km as substrate for the AMPK
Excerpt: A series of synthetic peptides including analogues of proteins […] to be substrates for the AMPK were screened with partially purified enzyme (purified to the DE-52 step). These included the myosin light chains, ADR1, glycogen synthase and phospholemman. The phospholemman peptides tested were poor substrates and not investigated further. The glycogen synthase peptide, PLSRTLSVAAKK (SEQ ID NO: 46) was phosphorylated in an AMP-dependent manner at approximately 40% of the rate of the SAMS peptide, however, this peptide is an excellent substrate for a number of protein kinases, including protein kinase C and calmodulin dependent protein kinase II (Kemp, B. E. and Pearson, R. B. (1991) in Protein Phosphorylation, Hunter, T and Sefton, B. M. (eds) Methods in Enzymology, 200, 121-134). The myosin light chain peptides tested were phosphorylated with rates approximately 15% of the SAMS peptide.
The AMPK was assayed in accordance with procedures described by Davies et al. (1989) Eur. J. Biochem. 186, 123-128 using the SAMS peptide substrate, HMRSAMSGLHLVKRR-amide (SEQ ID NO: 49). The enzyme was diluted in diluting buffer (20 mM HEPES pH 7.0, 0.1% (v/v) Triton X-100) prior to assay and the reactions were initiated by adding […] diluted enzyme to the reaction mixture containing peptide substrate. The reactions were stopped by withdrawing […] aliquots and applying to P81 papers in accordance with procedures described by Pearson, R. B., Mitchelhill, K. I., and Kemp, B. E. (1993) in Protein Phosphorylation: A Practical Approach, Hardie, G. D. (ed) Oxford University Press, pp 265-291.

SAMS peptide [1] = conditions: scale: % of the SAMS peptide phosphotransferase activity of rat liver
SAMS peptide [2] = target: SAMS peptide
[3] = target: ADR1(222-234)P229 peptide
[4] = target: glycogen synthase peptide
[5] = target: myosin light chain peptides
SAMS peptide [6] = target: SAMS peptide; remark: listed apart in the source
[7] = target: ADR1(225-234) peptide (Saccharomyces cerevisiae (strain ATCC 204508 / S288c) (Baker's yeast)) (UniProt P07248)

In the case of `Nc1ncnc2c1ncn2[C@@H]1O[C@H](COP(=O)(O)O)[C@@H](O)[C@H]1O` [5'-AMP], the “activation by 5'-AMP” value (AMPK α2) is reported as 3-4 fold and the “activation by 5'-AMP” value (AMPK α1) is reported as 2-3 fold.
For “ADR1(225-234): synthetic ADR1 peptide screened as AMPK substrate (LTRRASFSAQ)”, the “rate of phosphorylation relative to the SAMS peptide” value (AMPK) was “approximately 50%”.
In the case of “AMPK α1 isoform holoenzyme purified from liver by peptide substrate affinity chromatography (63 kDa catalytic subunit, 40 kDa and 38 kDa subunits) (from UniProt P54645)”, the SAMS peptide phosphotransferase activity (SAMS peptide [1]) is reported as greater than 94.
Work on “AMPK α2 isoenzyme of rat liver (α2 with β and γ subunits), from the unbound fraction of the peptide substrate affinity column (from UniProt Q09137)” yielded an apparent specific activity (acetyl CoA carboxylase) greater than 20 fold lower and an apparent specific activity (SAMS peptide [2]) greater than 20 fold lower.
“AMPK, partially purified enzyme (purified to the DE-52 step)” showed an apparent Km of phosphorylation [3] of 3 µM, a rate of phosphorylation (% of the rate of the SAMS peptide) [4] of 40 and a rate of phosphorylation (% of the SAMS peptide) [5] of 15. The apparent Km of phosphorylation (SAMS peptide [6]) was 33 µM and the rate of phosphorylation (% of the SAMS peptide) [7] was 50.
“HMRSAMSGLHLVKRR-amide (HMRSAMSGLHLVKRR-NH2) [SAMS peptide]” was tested, and the Km (AMPK) was 33 µM.
In the case of “LKKLTLRASFSAQ (not fully specified) [ADR1(222-234)^P229]”, the “rate of phosphorylation relative to the SAMS peptide” value (AMPK) is reported as “approximately 50%” and the Km (AMPK) is reported as ~3 µM and 3 µM.
“PLSRTLSVAAKK [glycogen synthase peptide]” was tested, and the “rate of phosphorylation relative to the SAMS peptide” value (AMPK) was “approximately 40%”.
